Laboratory results published in PMC2034464 (Nucleic Acids Research, 2007).

Columns and labels:
[1] = biological target: T1, MutSβ (MSH2/MSH3 heterodimer) (human, UniProt P43246 1-934; P20585 1-1137); experiment: pull-down
[2] = biological target: T2, MutLα (MLH1/PMS2 heterodimer) (human, UniProt P40692 1-756; P54278 1-862); experiment: pull-down
[3] = biological target: T3, MutSα (MSH2/MSH6 heterodimer) (human, UniProt P43246 1-934; P52701 1-1360); experiment: pull-down
[4] = biological target: T1, MutSβ (MSH2/MSH3 heterodimer); experiment: ELISA
[5] = biological target: T2, MutLα (MLH1/PMS2 heterodimer); experiment: ELISA
[6] = biological target: T3, MutSα (MSH2/MSH6 heterodimer); experiment: ELISA

T1 sequence (P43246 whole entry, chain 1 of 2): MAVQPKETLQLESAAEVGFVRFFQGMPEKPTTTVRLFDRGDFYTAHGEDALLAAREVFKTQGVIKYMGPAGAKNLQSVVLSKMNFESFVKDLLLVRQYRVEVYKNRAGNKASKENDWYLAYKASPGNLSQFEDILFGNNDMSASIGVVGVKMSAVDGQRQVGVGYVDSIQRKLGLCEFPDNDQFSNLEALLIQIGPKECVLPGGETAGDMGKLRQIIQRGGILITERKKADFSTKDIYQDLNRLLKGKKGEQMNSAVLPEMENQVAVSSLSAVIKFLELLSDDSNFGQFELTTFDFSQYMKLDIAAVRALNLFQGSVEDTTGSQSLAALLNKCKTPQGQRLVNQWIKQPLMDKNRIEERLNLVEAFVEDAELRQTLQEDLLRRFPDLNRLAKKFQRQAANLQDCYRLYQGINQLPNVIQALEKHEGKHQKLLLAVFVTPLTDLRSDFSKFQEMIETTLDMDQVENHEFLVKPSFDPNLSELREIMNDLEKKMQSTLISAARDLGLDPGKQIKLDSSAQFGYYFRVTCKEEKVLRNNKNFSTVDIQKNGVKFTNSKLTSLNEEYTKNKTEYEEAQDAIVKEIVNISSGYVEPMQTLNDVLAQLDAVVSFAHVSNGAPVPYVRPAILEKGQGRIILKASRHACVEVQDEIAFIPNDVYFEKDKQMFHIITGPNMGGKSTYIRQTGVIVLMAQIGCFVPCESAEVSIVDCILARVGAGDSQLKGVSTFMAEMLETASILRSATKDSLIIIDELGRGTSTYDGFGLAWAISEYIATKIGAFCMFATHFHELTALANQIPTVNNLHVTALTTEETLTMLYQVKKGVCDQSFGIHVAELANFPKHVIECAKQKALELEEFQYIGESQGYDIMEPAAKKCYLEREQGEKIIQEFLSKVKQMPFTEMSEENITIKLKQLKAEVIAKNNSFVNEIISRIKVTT
T1 sequence (P20585 whole entry, chain 2 of 2): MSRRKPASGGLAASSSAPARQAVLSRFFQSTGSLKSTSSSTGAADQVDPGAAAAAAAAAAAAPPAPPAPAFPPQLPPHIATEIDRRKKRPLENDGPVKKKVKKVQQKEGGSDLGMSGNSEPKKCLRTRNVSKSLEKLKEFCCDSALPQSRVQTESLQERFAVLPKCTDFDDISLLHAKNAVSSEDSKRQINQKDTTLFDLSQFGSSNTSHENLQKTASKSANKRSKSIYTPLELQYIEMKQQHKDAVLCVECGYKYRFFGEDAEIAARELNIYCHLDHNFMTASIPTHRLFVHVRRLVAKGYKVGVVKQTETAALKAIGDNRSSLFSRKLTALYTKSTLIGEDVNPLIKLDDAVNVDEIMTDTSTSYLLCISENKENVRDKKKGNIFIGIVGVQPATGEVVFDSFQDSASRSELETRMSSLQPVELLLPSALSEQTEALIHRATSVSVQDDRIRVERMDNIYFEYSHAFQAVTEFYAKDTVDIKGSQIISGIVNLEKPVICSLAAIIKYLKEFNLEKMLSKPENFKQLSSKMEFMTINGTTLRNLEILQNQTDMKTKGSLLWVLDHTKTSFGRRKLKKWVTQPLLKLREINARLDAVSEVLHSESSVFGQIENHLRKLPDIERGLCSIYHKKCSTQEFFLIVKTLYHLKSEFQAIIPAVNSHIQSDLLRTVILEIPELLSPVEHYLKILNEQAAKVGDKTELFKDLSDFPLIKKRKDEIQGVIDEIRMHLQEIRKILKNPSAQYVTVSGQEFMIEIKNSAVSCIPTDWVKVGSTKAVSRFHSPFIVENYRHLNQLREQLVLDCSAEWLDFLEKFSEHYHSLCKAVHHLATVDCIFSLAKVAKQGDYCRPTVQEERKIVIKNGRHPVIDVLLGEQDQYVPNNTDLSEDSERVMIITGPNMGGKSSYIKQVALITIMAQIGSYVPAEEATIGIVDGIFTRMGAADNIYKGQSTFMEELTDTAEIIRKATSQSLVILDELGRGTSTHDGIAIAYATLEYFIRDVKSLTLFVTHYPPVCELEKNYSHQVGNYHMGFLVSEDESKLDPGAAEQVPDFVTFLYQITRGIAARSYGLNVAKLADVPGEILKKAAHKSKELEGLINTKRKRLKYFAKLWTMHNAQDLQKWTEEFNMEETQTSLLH
T2 sequence (P40692 whole entry, chain 1 of 2): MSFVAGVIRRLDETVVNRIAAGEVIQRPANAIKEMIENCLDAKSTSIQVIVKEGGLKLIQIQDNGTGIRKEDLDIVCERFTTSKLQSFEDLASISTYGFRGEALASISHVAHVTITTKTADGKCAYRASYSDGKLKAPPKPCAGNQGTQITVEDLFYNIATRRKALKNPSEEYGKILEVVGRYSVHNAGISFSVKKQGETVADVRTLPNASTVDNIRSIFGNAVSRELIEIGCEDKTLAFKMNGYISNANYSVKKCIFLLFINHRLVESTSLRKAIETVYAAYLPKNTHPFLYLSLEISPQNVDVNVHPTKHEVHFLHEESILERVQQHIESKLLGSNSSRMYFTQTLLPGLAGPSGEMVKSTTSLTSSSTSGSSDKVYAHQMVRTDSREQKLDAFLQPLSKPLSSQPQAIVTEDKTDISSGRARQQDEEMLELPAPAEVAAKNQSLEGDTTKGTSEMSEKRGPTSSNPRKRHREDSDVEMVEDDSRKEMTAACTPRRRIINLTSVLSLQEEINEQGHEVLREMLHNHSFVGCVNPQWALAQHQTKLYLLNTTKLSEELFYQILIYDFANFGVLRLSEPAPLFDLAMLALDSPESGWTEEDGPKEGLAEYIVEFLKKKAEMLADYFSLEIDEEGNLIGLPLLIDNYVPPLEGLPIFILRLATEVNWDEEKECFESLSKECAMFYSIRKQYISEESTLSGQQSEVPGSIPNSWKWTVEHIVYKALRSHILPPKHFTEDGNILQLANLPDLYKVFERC
T2 sequence (P54278 whole entry, chain 2 of 2): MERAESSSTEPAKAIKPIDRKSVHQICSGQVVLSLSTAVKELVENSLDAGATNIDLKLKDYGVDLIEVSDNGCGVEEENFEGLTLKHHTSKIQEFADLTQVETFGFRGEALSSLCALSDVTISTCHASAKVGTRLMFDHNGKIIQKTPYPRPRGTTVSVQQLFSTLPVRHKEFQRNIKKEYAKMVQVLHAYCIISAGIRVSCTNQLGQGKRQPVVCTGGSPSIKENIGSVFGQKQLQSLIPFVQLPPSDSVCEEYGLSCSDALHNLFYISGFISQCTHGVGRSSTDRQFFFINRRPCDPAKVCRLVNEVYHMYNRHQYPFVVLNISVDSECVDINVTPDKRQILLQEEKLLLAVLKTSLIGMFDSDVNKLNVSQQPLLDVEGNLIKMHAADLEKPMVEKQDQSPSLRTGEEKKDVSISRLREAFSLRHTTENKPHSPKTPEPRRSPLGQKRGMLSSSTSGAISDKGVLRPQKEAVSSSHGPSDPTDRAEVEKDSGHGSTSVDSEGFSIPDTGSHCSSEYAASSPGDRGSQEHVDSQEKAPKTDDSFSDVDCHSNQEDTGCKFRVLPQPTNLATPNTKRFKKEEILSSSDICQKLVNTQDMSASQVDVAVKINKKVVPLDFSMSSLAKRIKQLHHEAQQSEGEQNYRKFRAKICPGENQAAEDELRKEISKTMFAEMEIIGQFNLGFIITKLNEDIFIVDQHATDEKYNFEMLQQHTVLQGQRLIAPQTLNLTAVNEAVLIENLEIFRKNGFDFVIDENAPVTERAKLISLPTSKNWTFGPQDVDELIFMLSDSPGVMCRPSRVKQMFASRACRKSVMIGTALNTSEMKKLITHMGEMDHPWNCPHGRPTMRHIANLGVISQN

B1: GST-WRN fragment 500–946 (domain or fragment)
chain: not shown
binding result [1]: binds
binding result [2]: binds
binding result [3]: binds

B2: GST-WRN fragment 949–1432 (domain or fragment, human, UniProt Q14191 949-1432, looked up)
chain: MDDSEDTSWDFGPQAFKLLSAVDILGEKFGIGLPILFLRGSNSQRLADQYRRHSLFGTGKDQTESWWKAFSRQLITEGFLVEVSRYNKFMKICALTKKGRNWLHKANTESQSLILQANEELCPKKLLLPSSKTVSSGTKEHCYNQVPVELSTEKKSNLEKLYSYKPCDKISSGSNISKKSIMVQSPEKAYSSSQPVISAQEQETQIVLYGKLVEARQKHANKMDVPPAILATNKILVDMAKMRPTTVENVKRIDGVSEGKAAMLAPLLEVIKHFCQTNSVQTDLFSSTKPQEEQKTSLVAKNKICTLSQSMAITYSLFQEKKMPLKSIAESRILPLMTIGMHLSQAVKAGCPLDLERAGLTPEVQKIIADVIRNPPVNSDMSKISLIRMLVPENIDTYLIHMAIEILKHGPDSGLQPSCDVNKRRCFPGSEEICSSSKRSKEEVGINTETSSAERKRRLPVWFAKGSDTSKKLMDKTKRGGLFS
binding result [1]: binds

B3: GST-WRN fragment 51–449 (domain or fragment, human, UniProt Q14191 51-449, looked up)
chain: GSIVYSYDASDCSFLSEDISMSLSDGDVVGFDMEWPPLYNRGKLGKVALIQLCVSESKCYLFHVSSMSVFPQGLKMLLENKAVKKAGVGIEGDQWKLLRDFDIKLKNFVELTDVANKKLKCTETWSLNSLVKHLLGKQLLKDKSIRCSNWSKFPLTEDQKLYAATDAYAGFIIYRNLEILDDTVQRFAINKEEEILLSDMNKQLTSISEEVMDLAKHLPHAFSKLENPRRVSILLKDISENLYSLRRMIIGSTNIETELRPSNNLNLLSFEDSTTGGVQQKQIREHEVLIHVEDETWDPTLDHLAKHDGEDVLGNKVERKEDGFEDGVEDNKLKENMERACLMSLDITEHELQILEQQSQEEYLSDIAYKSTEHLSPNDNENDTSYVIESDEDLEMEML
binding result [2]: binds

B4: GST-WRN fragment 500–1149 (domain or fragment)
chain: not shown
binding result [1]: binds

B5: Recombinant human WRN (Werner syndrome helicase) (natural protein)
chain: not shown
Kd [4]: 8.8 nM
Kd [5]: 34.9 nM
Kd [6]: 38.5 nM
